Experimental data published in the supplement of paper PMC7125110.
± gives the standard error. Variants at the floor of the assay were thinned out.

B1: glmS ribozyme (parent)
chain: AUAAAAGCGCCAGAACUACAGAAAUGUAGUUGACGAGGAGGAGGUUUAUCGAAUUUUCGGCGGAUGCCUCCAAA

Columns and labels:
Conditions in all cases: with glucosamine-6-phosphate
glucosamine-6-phosphate [1] = variants of: B1; assay: self-cleavage kobs at 40 uM GlcN6P; higher = faster cleavage; RNA array
In short: (§1)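 On sequenced MiSeq chips, barcoded ribozyme variants were made in situ by E. coli RNA polymerase and followed at 37 °C through a hybridised Cy3 probe. Glucosamine-6-phosphate was flowed in at 40 μM to 10 mM in HEPES/KCl/Mg(OAc)2 buffer. Exponential fits to normalised per-tile medians gave kobs, and weighted Michaelis–Menten fits gave kcat and KM.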

glucosamine-6-phosphate [2] = variants of: B1; assay: self-cleavage kobs at 10000 uM GlcN6P; higher = faster cleavage; RNA array
In short: as §1

glucosamine-6-phosphate [3] = variants of: B1; assay: self-cleavage kobs at 640 uM GlcN6P; higher = faster cleavage; RNA array
In short: as §1

glucosamine-6-phosphate [4] = variants of: B1; assay: self-cleavage kobs at 160 uM GlcN6P; higher = faster cleavage; RNA array
In short: as §1

glucosamine-6-phosphate [5] = variants of: B1; assay: self-cleavage kobs at 2500 uM GlcN6P; higher = faster cleavage; RNA array
In short: as §1

Row | Variant | self-cleavage kobs at 40 uM GlcN6P (glucosamine-6-phosphate [1]) [s⁻¹] | self-cleavage kobs at 10000 uM GlcN6P (glucosamine-6-phosphate [2]) [s⁻¹] | self-cleavage kobs at 640 uM GlcN6P (glucosamine-6-phosphate [3]) [s⁻¹] | self-cleavage kobs at 160 uM GlcN6P (glucosamine-6-phosphate [4]) [s⁻¹] | self-cleavage kobs at 2500 uM GlcN6P (glucosamine-6-phosphate [5]) [s⁻¹]
1 | C16G U65C C71G | < 1e-05 | < 1e-05 |  |  | 
2 | G7A A52G | < 1e-05 | < 1e-05 | < 1e-05 |  | 
3 | U30C G35U G41A U47A U57A C61G G63C C70A | < 1e-05 | < 1e-05 |  |  | 
4 | C8U G43A | < 1e-05 |  |  | < 1e-05 | 
5 | C11A A15C U45G C70U | < 1e-05 |  |  |  | 
6 | A36C U69G | 4.49e-05 ± 1.6e-05 | 3.45e-05 ± 1e-05 | 0.000391 ± 9.8e-05 | 0.000114 ± 3.7e-05 | 0.0001 ± 2e-05
7 | A6C C11A | < 1e-05 |  |  | < 1e-05 | < 1e-05
8 | G7A G13U A14C A15U G35A U55C A64G C71A | < 1e-05 | < 1e-05 |  |  | 
9 | G44C G62A | < 1e-05 | < 1e-05 | < 1e-05 | < 1e-05 | < 1e-05
10 | G44C G62C | < 1e-05 | < 1e-05 | < 1e-05 | < 1e-05 | < 1e-05
11 | G35U C61U U65G | < 1e-05 |  |  |  | 
12 | G9C G40A C50A | < 1e-05 | < 1e-05 |  |  | 
13 | A48G G63U | < 1e-05 | < 1e-05 |  |  | < 1e-05
14 | G7C G40A | < 1e-05 | < 1e-05 | < 1e-05 | < 1e-05 | < 1e-05
15 | C10A G29C U56C A64G | < 1e-05 |  |  |  | 
16 | G7C U47G U56G G59U G60C | < 1e-05 |  |  |  | 
17 | A6U A36G | < 1e-05 | < 1e-05 | < 1e-05 | < 1e-05 | 
18 | G9A A14G | < 1e-05 | 5.01e-05 ± 1.3e-05 |  | < 1e-05 | 
19 | C16U A33U G38A G40A | < 1e-05 | < 1e-05 |  |  | 
20 | G13A G44A | < 1e-05 |  |  |  | 
21 | C34G C58U | < 1e-05 | < 1e-05 | < 1e-05 |  | < 1e-05
22 | U56A C70U C71U | 5.46e-05 ± 1.5e-05 | 8.85e-05 ± 1.7e-05 | 8.84e-05 ± 1.7e-05 |  | 0.000232 ± 5.2e-05
23 | C8A A36U | < 1e-05 | < 1e-05 | < 1e-05 | < 1e-05 | < 1e-05
24 | G7C G63C C68G U69A | < 1e-05 | < 1e-05 |  |  | 

Row | Variant | self-cleavage kobs at 40 uM GlcN6P (glucosamine-6-phosphate [1]) [s⁻¹] | self-cleavage kobs at 10000 uM GlcN6P (glucosamine-6-phosphate [2]) [s⁻¹] | self-cleavage kobs at 640 uM GlcN6P (glucosamine-6-phosphate [3]) [s⁻¹] | self-cleavage kobs at 160 uM GlcN6P (glucosamine-6-phosphate [4]) [s⁻¹] | self-cleavage kobs at 2500 uM GlcN6P (glucosamine-6-phosphate [5]) [s⁻¹]
25 | C34U U57C C58U | < 1e-05 | < 1e-05 |  |  | < 1e-05
26 | A6C C16A | < 1e-05 |  | < 1e-05 | < 1e-05 | < 1e-05
27 | A6C C58G | < 1e-05 | < 1e-05 | < 1e-05 |  | 
28 | G41A A52G G59A | < 1e-05 |  | < 1e-05 | < 1e-05 | 
29 | C11U C16U | 6.96e-05 ± 2e-05 | 0.00196 ± 0.0007 | 0.000352 ± 9.4e-05 | 8.34e-05 ± 2.3e-05 | 0.00134 ± 0.00058
30 | A42C C68G | < 1e-05 |  | < 1e-05 | < 1e-05 | 
31 | G37C G38C G40U U55A | < 1e-05 |  |  |  | < 1e-05
32 | G7U U31G G62A | < 1e-05 | < 1e-05 |  |  | < 1e-05
33 | G29U G32A U65G G66A | < 1e-05 | 4.66e-05 ± 1.9e-05 |  |  | 
34 | U46G A52G C61A | < 1e-05 |  |  |  | 
35 | G7U A39G | < 1e-05 | < 1e-05 | < 1e-05 | < 1e-05 | < 1e-05
36 | G44C G51A A53C | < 1e-05 | < 1e-05 |  |  | 
37 | U45G C50U A53U | < 1e-05 |  |  |  | 
38 | G44A C71A | < 1e-05 |  | < 1e-05 | < 1e-05 | < 1e-05
39 | A15G A52G C58G | < 1e-05 | 8.04e-05 ± 2.1e-05 |  |  | 
40 | C16A A33U G38C | < 1e-05 |  |  |  | < 1e-05
41 | C8G A64G | < 1e-05 | < 1e-05 |  | < 1e-05 | < 1e-05
42 | A42C G62U | < 1e-05 | < 1e-05 | < 1e-05 |  | < 1e-05
43 | G7U G13U A53G | < 1e-05 |  |  |  | 
44 | A33G G40U U49C | < 1e-05 | < 1e-05 |  |  | 
45 | C10G U30A A42U G51A | < 1e-05 |  |  |  | 
46 | G7U G32U U49A | < 1e-05 | < 1e-05 | < 1e-05 |  | < 1e-05
47 | G13C U30G U54G G63U C67U | < 1e-05 | < 1e-05 |  |  | 
